Tests used:
[1] = substrate: C/C(C=O)=C\CC/C(C)=C/C=O; assay: purified protein; assay type: biochemical, Swertia mussotii; settings: co-substrate NADPH, 20 mM MOPS pH 7.0, 40 °C, substrate stock contained 8-oxoneral isomer
[2] = substrate: NC(=O)C1=CN([C@@H]2O[C@H](COP(=O)(O)OP(=O)(O)OC[C@H]3O[C@@H](n4cnc5c(N)ncnc54)[C@H](OP(=O)(O)O)[C@@H]3O)[C@@H](O)[C@H]2O)C=CC1; assay: purified protein; assay type: biochemical, Swertia mussotii; settings: co-substrate 8-oxogeranial, 20 mM MOPS pH 7.0, 40 °C, varied: cofactor

Protein	Km ([1]; MBP fusion) [µM]	kcat ([1]; MBP fusion) [s⁻¹]	kcat/Km ([1]; MBP fusion) [M⁻¹ s⁻¹]	Km ([2]; MBP fusion) [µM]	kcat ([2]; MBP fusion) [s⁻¹]	kcat/Km ([2]; MBP fusion) [M⁻¹ s⁻¹]	Km ([1]; His-tagged) [µM]	kcat ([1]; His-tagged) [s⁻¹]	kcat/Km ([1]; His-tagged) [M⁻¹ s⁻¹]	Km ([2]; His-tagged) [µM]	kcat ([2]; His-tagged) [s⁻¹]	kcat/Km ([2]; His-tagged) [M⁻¹ s⁻¹]
SmIS1 (Swertia mussotii) (protein, pETMALc-H, N-terminal MBP fusion with 10 His (~88 kDa); E. coli BL21(DE3), purified) MSWWWKRSVQAQNLPEKNQPNGVAETAGRYESVALVVGVTGIVGSSLAQVLKLPDTPGGPWKVYGVARRPCPAWLAKFHVEYIQCDVSNTEEAKTKLSPLKDVTHIFYVSWIGSEDCETNAVMFKNILYNIIPVAPNLKHISLQTGSKHYFGIFEEGSEAVPHESPYTEDLPRLNIPNFYHDLEDILFEETAKHGLTWCVQRPALIFGFSPCSLMNIVSTLSIYATICKHEKKPLVYPGSKASWNCYVDGADADLAAEHHIWAAVDPKAKNQVFNVKNGDVFKWKNVWKMLADEFEMEMVGYIEGNEQVSMAELMKDKDGVWDEIVKKHKLEDTKLKEIAAFWFADIAFSCVDLVMSVTKSREFGFLGFRDSMKSFKSCIHKMRDFKFIP	7.29 ± 1.59	0.11 ± 0.007	15600 ± 4350	77.94 ± 6.03	0.135 ± 0.01	1732 ± 11.3	–	–	–	–	–	–
SmIS2 (Swertia mussotii) (protein, pET-28a, 6-His tags at N- and C-terminus (~46 kDa); E. coli BL21(DE3), purified) MSWWWTGAVAAAREKVYDERPKTSPSVALIIGVTGIVGNSLADILPLSDTPGGPWKVYGVARRPRPAWSEDHPVEYIQLDVYNAKETQSKLSPLTDITHIFWTTWANRPTEAECCQVNGAMLQNVIDAVLPNAPNLSHICIQTGHKHYIGPFETFGKIKPHETPFIEDVPRLDVPNFYYTLEDITLETCKKKEGLTWSVHRPAVIFGFSPYSMMNLIGSLCVYAAICKHENVPFTYPGTKGAWNCYSVASDADLIAEHQIWASVDPYAKNEAYNCSNGDLFKWKSLWKVLAEQFDLEYVEFDENQDYVSLAERMKDKGPVWDEIVKQNKLTPTKLEEVATFWFADVIFSGECMLDSMSKSKEHGFLGFRDTTKSLLSVVGKMKAHKIVP	–	–	–	–	–	–	54.37 ± 4.29	0.034 ± 0.001	629 ± 75.9	41.83 ± 7.2	0.026 ± 0.01	628 ± 105

Source: paper PMC6152284, “Cloning and Characterization of Two Iridoid Synthase Homologs from Swertia Mussotii” (Molecules : A Journal of Synthetic Chemistry and Natural …, 2017)
